This is an account of results in paper PMC9600270 (Cancers, 2022).

Assay [1] has as its system RD cells (cell surface nucleolin). In words: Lactoferrin competition of QD-F3 binding, RD. It is filed as cell-based. Particulars: 2 μM lactoferrin pretreatment 20 min, then 20 nM QD-F3 + 2 μM lactoferrin 1 h on ice, FACS.
Assay [2] has as its system Rh30 cells (cell surface nucleolin). The experiment in a line: Lactoferrin competition of QD-F3 binding, Rh30. In kind it is cell-based. To be noted: 2 μM lactoferrin pretreatment 20 min, then 20 nM QD-F3 + 2 μM lactoferrin 1 h on ice, FACS.

B1: lactoferrin: human milk lactoferrin, high-affinity natural ligand of nucleolin (protein, UniProt P02788 20-710, looked up)
Lactotransferrin: GRRRSVQWCAVSQPEATKCFQWQRNMRKVRGPPVSCIKRDSPIQCIQAIAENRADAVTLDGGFIYEAGLAPYKLRPVAAEVYGTERQPRTHYYAVAVVKKGGSFQLNELQGLKSCHTGLRRTAGWNVPIGTLRPFLNWTGPPEPIEAAVARFFSASCVPGADKGQFPNLCRLCAGTGENKCAFSSQEPYFSYSGAFKCLRDGAGDVAFIRESTVFEDLSDEAERDEYELLCPDNTRKPVDKFKDCHLARVPSHAVVARSVNGKEDAIWNLLRQAQEKFGKDKSPKFQLFGSPSGQKDLLFKDSAIGFSRVPPRIDSGLYLGSGYFTAIQNLRKSEEEVAARRARVVWCAVGEQELRKCNQWSGLSEGSVTCSSASTTEDCIALVLKGEADAMSLDGGYVYTAGKCGLVPVLAENYKSQQSSDPDPNCVDRPVEGYLAVAVVRRSDTSLTWNSVKGKKSCHTAVDRTAGWNIPMGLLFNQTGSCKFDEYFSQSCAPGSDPRSNLCALCIGDEQGENKCVPNSNERYYGYTGAFRCLAENAGDVAFVKDVTVLQNTDGNNNEAWAKDLKLADFALLCLDGKRKPVTEARSCHLAMAPNHAVVSRMDKVERLKQVLLHQQAKFGRNGSDCPDKFCLFQSETKNLLFNDNTECLARLHGKTTYEKYLGPQYVAGITNLKKCSTSPLLEACEFLRK
Regarding B1, the “QD-F3 binding upon co-incubation with excess lactoferrin” value in assay [1] and in assay [2] was “clear decrease” throughout.
